The source of these data is PMC4376794, “Production of Functional Human Vitamin A Transporter/RBP Receptor (STRA6) for Structure Determination” (PLoS ONE, 2015).

The target in assay [1] is T1, retinol binding protein (His-RBP) (UniProt P02753 19-201). In words: SPR; apo-RBP (6.9-219.3 uM) flowed over STRA6-GFP captured by its c-Myc tag on immobilised anti-c-Myc antibody (CM5, Biacore 3000); anti-HA antibody reference cell; room temperature; steady-state responses fitted to one site plus a linear low-affinity component; triplicate. Particulars: both partners purified. Background: Surface plasmon resonance follows binding to a sensor surface in real time, without labels.

In assay [2] the target is T1, retinol binding protein (His-RBP). The assay can be described thus: SPR; holo-RBP (retinol-loaded, 6.9-219.3 uM) flowed over STRA6-GFP captured by its c-Myc tag on immobilised anti-c-Myc antibody (CM5, Biacore 3000); anti-HA antibody reference cell; room temperature; steady-state responses fitted to one site plus a linear low-affinity component; triplicate. Particulars: both partners purified.

B1: STRA6-GFP-c-Myc-His6 (STRA6-HRV3C-eGFP-Myc-His6) (receptor, human)
chain: MSSQPAGNQTSPGATEDYSYGSWYIDEPQGGEELQPEGEVPSCHTSIPPGLYHACLASLSILVLLLLAMLVRRRQLWPDCVRGRPGLPSPVDFLAGDRPRAVPAAVFMVLLSSLCLLLPDEDALPFLTLASAPSQDGKTEAPRGAWKILGLFYYAALYYPLAACATAGHTAAHLLGSTLSWAHLGVQVWQRAECPQVPKIYKYYSLLASLPLLLGLGFLSLWYPVQLVRSFSRRTGAGSKGLQSSYSEEYLRNLLCRKKLGSSYHTSKHGFLSWARVCLRHCIYTPQPGFHLPLKLVLSATLTGTAIYQVALLLLVGVVPTIQKVRAGVTTDVSYLLAGFGIVLSEDKQEVVELVKHHLWALEVCYISALVLSCLLTFLVLMRSLVTHRTNLRALHRGAALDLSPLHRSPHPSRQAIFCWMSFSAYQTAFICLGLLVQQIIFFLGTTALAFLVLMPVLHGRNLLLFRSLESSWPFWLTLALAVILQNMAAHWVFLETHDGHPQLTNRRVLYAATFLLFPLNVLVGAMVATWRVLLSALYNAIHLGQMDLSLLPPRAATLDPGYYTYRNFLKIEVSQSHPAMTAFCSLLLQAQSLLPRTMAAPQDSLRPGEEDEGMQLLQTKDSMAKGARPGASRGRARWGLAYTLLHNPTLQVFRKTALLGANGAQP
notes: human STRA6, full length (transcript variant 2); In SPR it was held by its C-terminal c-Myc tag on an anti-c-Myc antibody; also called vitamin A transporter/RBP receptor; RBP receptor; source: Pichia pastoris KM71H (pPICZ-A); on whole cells, in broken cells, and purified (solubilised in C12E9, Ni-NTA with exchange to DDM, size exclusion); not shown: GFP (eGFP), C-terminal, kept; c-Myc, …
One may read the Kd as the constant that tells how readily two partners part at equilibrium. On to B1, for which the Kd in assay [1] was determined as 22.4 µM; in assay [2], 19.4 µM.
